Among the data in patent publication US20060121570A1 (published 2006) are IC50 and kon values, retold here.

What is called IC50 is the concentration that inhibits the measured activity by half. Read a high IC50 as a need for much substance. A word on the kon: it is the second-order rate constant of association.

For assay [1], the target named is T1, platelet integrin αIIbβ3 (human platelet glycoprotein gpIIb/IIIa), purified (human, UniProt P08514 32-1039; P05106 27-788).
T1 construct: mature
The assay can be described thus: inhibition of 125I-fibrinogen binding to purified αIIbβ3.

Assay [2] has as its target T1, platelet integrin αIIbβ3 (human …). The experiment in a line: SPR (BIAcore), αIIbβ3 immobilized.

B1: linear peptide GCSFGRNDSRNCY derived from the HCDR3 of MTF-40 (peptide)
peptide: Ac-GCSFGRNDSRNCY-NH2
modifications: cysteine pairing not given here
notes: also called peptide 40 (linear)
In assay [1], B1 displayed a half-inhibitory concentration (IC50) of 500 nM.

B2: circular peptide CSFGRNDSRNC derived from the HCDR3 of MTF-40 (peptide)
peptide: CSFGRNDSRNC
HELM: PEPTIDE1{[ac].C.S.F.G.R.N.D.S.R.N.C.[am]}$PEPTIDE1,PEPTIDE1,2:R3-12:R3$$$V2.0
SMILES: CC(=O)N[C@H]1CSSC[C@@H](C(N)=O)NC(=O)[C@H](CC(N)=O)NC(=O)[C@H](CCCNC(=N)N)NC(=O)[C@H](CO)NC(=O)[C@H](CC(=O)O)NC(=O)[C@H](CC(N)=O)NC(=O)[C@H](CCCNC(=N)N)NC(=O)CNC(=O)[C@H](Cc2ccccc2)NC(=O)[C@H](CO)NC1=O
notes: also called peptide 40 (circular)
Consider B2, for which the IC50 in assay [1] stood at 500 nM. In other words, the sub-micromolar range.

B3: linear peptide GCSFGRTDQRNCY derived from the HCDR3 of MTF-32 (peptide)
peptide: Ac-GCSFGRTDQRNCY-NH2
modifications: cysteine pairing not given here
notes: also called peptide 32 (linear)
As to B3, the IC50 in assay [1] was found to be 2000 nM. This IC50 lies about 4-fold higher than the previous one.

B4: fibrinogen (ligand)
chain 1: ADSGEGDFLAEGGGVRGPRVVERHQSACKDSDWPFCSDEDWNYKCPSGCRMKGLIDEVNQDFTNRINKLKNSLFEYQKNNKDSHSLTTNIMEILRGDFSSANNRDNTYNRVSEDLRSRIEVLKRKVIEKVQHIQLLQKNVRAQLVDMKRLEVDIDIKIRSCRGSCSRALAREVDLKDYEDQQKQLEQVIAKDLLPSRDRQHLPLIKMKPVPDLVPGNFKSQLQKVPPEWKALTDMPQMRMELERPGGNEITRGGSTSYGTGSETESPRNPSSAGSWNSGSSGPGSTGNRNPGSSGTGGTATWKPGSSGPGSTGSWNSGSSGTGSTGNQNPGSPRPGSTGTWNPGSSERGSAGHWTSESSVSGSTGQWHSESGSFRPDSPGSGNARPNNPDWGTFEEVSGNVSPGTRREYHTEKLVTSKGDKELRTGKEKVTSGSTTTTRRSCSKTVTKTVIGPDGHKEVTKEVVTSEDGSDCPEAMDLGTLSGIGTLDGFRHRHPDEAAFFDTASTGKTFPGFFSPMLGEFVSETESRGSESGIFTNTKESSSHHPGIAEFPSRGKSSSYSKQFTSSTSYNRGDSTFESKSYKMADEAGSEADHEGTHSTKRGHAKSRPV
chain 2: QGVNDNEEGFFSARGHRPLDKKREEAPSLRPAPPPISGGGYRARPAKAAATQKKVERKAPDAGGCLHADPDLGVLCPTGCQLQEALLQQERPIRNSVDELNNNVEAVSQTSSSSFQYMYLLKDLWQKRQKQVKDNENVVNEYSSELEKHQLYIDETVNSNIPTNLRVLRSILENLRSKIQKLESDVSAQMEYCRTPCTVSCNIPVVSGKECEEIIRKGGETSEMYLIQPDSSVKPYRVYCDMNTENGGWTVIQNRQDGSVDFGRKWDPYKQGFGNVATNTDGKNYCGLPGEYWLGNDKISQLTRMGPTELLIEMEDWKGDKVKAHYGGFTVQNEANKYQISVNKYRGTAGNALMDGASQLMGENRTMTIHNGMFFSTYDRDNDGWLTSDPRKQCSKEDGGGWWYNRCHAANPNGRYYWGGQYTWDMAKHGTDDGVVWMNWKGSWYSMRKMSMKIRPFFPQQ
chain 3: YVATRDNCCILDERFGSYCPTTCGIADFLSTYQTKVDKDLQSLEDILHQVENKTSEVKQLIKAIQLTYNPDESSKPNMIDAATLKSRKMLEEIMKYEASILTHDSSIRYLQEIYNSNNQKIVNLKEKVAQLEAQCQEPCKDTVQIHDITGKDCQDIANKGAKQSGLYFIKPLKANQQFLVYCEIDGSGNGWTVFQKRLDGSVDFKKNWIQYKEGFGHLSPTGTTEFWLGNEKIHLISTQSAIPYALRVELEDWNGRTSTADYAMFKVGPEADKYRLTYAYFAGGDAGDAFDGFDFGDDPSDKFFTSHNGMQFSTWDNDNDKFEGNCAEQDGSGWWMNKCHAGHLNGVYYQGGTYSKASTPNGYDNGIIWATWKTRWYSMKKTTMKIIPFNRLTIGEGQQHHLGGAKQAGDV
Molecule B4 returned an association rate constant (kon) in assay [2] of 600000 M⁻¹ s⁻¹.

B5: circular peptide CSFGRTDQRNC derived from the HCDR3 of MTF-32 (peptide)
peptide: CSFGRTDQRNC
HELM: PEPTIDE1{[ac].C.S.F.G.R.T.D.Q.R.N.C.[am]}$PEPTIDE1,PEPTIDE1,2:R3-12:R3$$$V2.0
SMILES: CC(=O)N[C@H]1CSSC[C@@H](C(N)=O)NC(=O)[C@H](CC(N)=O)NC(=O)[C@H](CCCNC(=N)N)NC(=O)[C@H](CCC(N)=O)NC(=O)[C@H](CC(=O)O)NC(=O)[C@H]([C@@H](C)O)NC(=O)[C@H](CCCNC(=N)N)NC(=O)CNC(=O)[C@H](Cc2ccccc2)NC(=O)[C@H](CO)NC1=O
notes: also called peptide 32 (circular)
Molecule B5 returned an IC50 in assay [1] of 2000 nM.
